Assay: yeast display, Sf9 membrane polyspecificity reagent, FACS + sequencing; frameworks hold sequencing errors
In short: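 Galactose-induced (36–48 hours) yeast carrying a synthetic nanobody display library were exposed to 10% biotinylated, detergent-solubilized Sf9 membrane reagent at 4 °C for 1 hour. FACS followed streptavidin microbead enrichment, using low and high (top ~1%) gates for expression (anti-HA) and reagent binding (streptavidin). Colony PCR, MiSeq 2 × 250 sequencing and CDR-length filtering followed. Labels for polyreactivity reflect the gate of origin.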

Sequence | polyreactivity (PSR sort gate)
QVQLVESGGGLVQAGGSLRLSCAASGRIFKPYAMGWYRQAPGKERELVASISRRGGSTYYADSVKGRFTISRDNAKNTVYLQMNSLKPEDTAVYDCNASGTYISLGYDYWGQGTQVTVSS | high polyreactivity
QVQLVESGGGLVQAGGSLRLSCAASGSIFVGYAMGWYRQAPGKERELVAAISKSGGSTYYADSVKGRYTISRDNAKNTVYLQMNSLKPEDTAVYYCAAYPVRLVYSQHRYQYDYWGQGTQVTVSS | high polyreactivity
QVQLVESGGGLVQAGGSLRLSCAASGLTFEKYAMGWYRQAPGKERELVAAISQDGGSTYYADSVKGRFTISRDNAKNTVYLQMNSLKPEDTAVYYCATGLGYFSRLDYWGQGTQVTVSS | low polyreactivity
QVQLVESGGGLVQAGASLRLSCAATGNIFVPNAMGWYRQEPGKERELVAAIRRGGSTNYADSVKGRFTISRDNAKNTVYLQMNSMKPEDTAVYYCAKSRVSFTELEGYYWGQGTQVNVSS | low polyreactivity
QVQLVESGGGLVQAGGSLLLSCAASGITFKWNDMGWYRQAPGKEREFVAAITGSTGSTFYADSVKGRFTISRDNAKNSVYLQMNSLNTEDTAVYYCAAGPWFYYWGQGTQVTVSS | low polyreactivity
QVQLVESGGGLVQAGGSLRLSCAASGSTFTYYAMGWYRQAPGKERELVASITTSGGDTNYADSVKGRFTISRDNAKNTVYLQMNSLKPEDTAVYYCAADLYDPYHVYGYNYWGQGTQVTVSS | low polyreactivity
QVQLQESGGGLVQAGGSLGCAASGNISTRSEMGWYRQSPGKEREFVATINSGGITNYADSVKGRFTISRDNAKNTVYLRMNSLKPEDTAVYYRAVYGYFSDPYDYWGQGTQVTVSS | low polyreactivity
QGQLVESWGGLVQAGGSLRLSCAASGSTFVFNAMGWYRQAPGKERELVAAISIDGSTNYADSVKGRFTISRDNAKNTVYLQMNSLEPEDTAVYYCNAKRYGFFYWQGDYWGQGTQVTVSS | low polyreactivity
QVQLVESGGGLVQAGGSLRLSCAASGFTLGSNVMGWYRQAPGKERELVAGISQSGGRTFYADSVKGRFTISRDNAKNTVYLQMNSLKPEDTAVYYCNKGASPDDYDYWGQGTQVTVSS | low polyreactivity
QVQLQERAAWCRRAGSLRLSCAASGNISDYYFMGWYRQAPGKERERVAAIAPGSKTYYADSVKGRFTISRDNAKNTVYLQMNSLKPEDTAVCFCAANSTQYTWFDYWGQGTQVPVSS | low polyreactivity
QFQLEESGGGIVQAGGSLRLSCAASGSTFYYNAMGWYRQAPGKERDLVAAITGSGTGTNYADSVKGRFTISRDNAKITVYLQMNSLKTEDTAVYYCAADYVWRGDPINSYLSWYVYWGQGTQVTVSS | low polyreactivity
QVQLVESGGGLVQAGGSLRLSCAASGFTFRGYVMGGYRQAPGKERELVAAITNIGTSTYYAHSVKGRFTISRDNAKNTVYVQMNSLKPEDTGVFFCAARLSTKFYYWGQVTQVTVSS | low polyreactivity
QVQLVESGGGLVQAGGSLRLSCAASGSIFSKYAMGWYRPAPGKERELVAAIASSGGSTYYADSVKGRFTISRDNAKNTVYFQMNSLKPEDTAVYYCAAGGRSVRYNYWGQGTQVTVSS | high polyreactivity
QVQLVESGGGLVQAGGSLRLSCAASGRTFWFYDMGWYRQAPGKEREFVASITSSGGSTYYADSVKGRFTISRDIAKNTVYLQMNSLNPEDTAVYYCAASFYWTTRYSREYDYWGQGTQVTVSS | high polyreactivity
QVQLVESGGGLVQAGGSLRLSCGAYGLTFTYNTMGWYRPAPGKERELVAAITSSGGRTYYADSVKGRFTISRDHAKNTVYFQMNSLKPEDTAVYYCAKTKYYPKRDYYWGQGTLVTVSS | high polyreactivity
QVQLVETGGGLVHAGGSLRLSCAASGRTFEPNAMGWYRQAPGKERELVATISYSGGRTNYADSVKGRFTISRDNAKNTVYLQMKILKPEDTAVYYCATRTYYRRVCIRDFWGQGTLVTVSS | high polyreactivity
QVQLVESGGGLVQAGGSLRLSCAASGSTFYQYAMGWYRQAPGKERELVAAISKSGGSTYYADSVKGRFTISRDYSKNTVYLQMNSLKPDDTSVYYCATRWIKGRKMDYWGQGTQVTVSS | high polyreactivity
QVQLVESGGGLVQAGGSLRLSCADSGFTFRYNAMGWYRQAPGKERELVAAISRSGGRTYYADSVKGRFTISRDNAKNTVYLQMNSLKPEDSAVYYCAAVAARITGYGYWGQGTQVTVSS | high polyreactivity
QVQLVESGGGLVQAGGSLRLSCAASGLIFVINAMGCYRQAPGKERELVATISSGVSTNNADSVKGRFTISRDNAKNTVYLQMYSLKPEDTAVYYCNKGQTVSRGYRLYERFVYWGQGTQVTVSS | low polyreactivity
QVQLVESGGGLVQAGGSLRLSCAASGSIVNYNDMGCYRQAPGKERELVAAIDSSGTSTYYADSVKGRFTISRDNAKNTVYLQMNSLKPEDTAVYYCNADSSLGFGYWGQGTQVTVSS | low polyreactivity
QVQLVESGGGLVQAGGSLRLSCAASGRTFYSNTIGWYRQAPGNESELVAAINRGGSTYYADSVKGRFTISRDNAKNTVYFQMNSLKPEDTAVYYCAVGYAHSSNRRYYYKKTHGYWGQGTQVTVSS | low polyreactivity
QVQLVESGGGLVQAGGSLRLSCAASGSTFDTYAMGWYRQAPGKERELVAAISVSGTSTSYADSVKGRFTISRDNAKNTVYLQMNSLKPEDTAVYYCNATDFSRNPGYARPEYDYWGQGTQVTVSS | low polyreactivity

Sequence | polyreactivity (PSR sort gate)
QVQLVESGGGLVQEGGSLRLSCAASGSNFKRNTMGWYRQAPGKERELVAAISASGGRTYYADSVKGRFTISRDNAKNTVYLPMNSLKPEDTAVYYCNARFRIGRSELDYWGQGTQVTVSS | low polyreactivity
QVQLVESVGGLVQAGGSLRLICAASGSIFGVYAMGWYRQAPGKERELVAVIRWRGGSTYYADSVKGRFTISRDYAKNTVFLQMNILKPEDTAVYYCAARLHIVVATYDRRYDYWGQGTQVTVSS | low polyreactivity
QVQLVESGGGLVQAGGSLRLSCAASGSTFGFYAMGWYRQAPGKERELVAAITASGDSTYYADSVKGRFTISRDNAKNTVYLQMNSLKPEDTAVYYCNAVWRYYRKRRAGDFGYWGQGTQVTVSS | low polyreactivity
QVQLVESGGGLVQAGGSLRLSCAASGSTYKGYAMGWYRQAPGKERELVAAISSSGGGTYYADSVKGRFTISRDNAKNTVYLQMNSLKPEDTAVYYCAATYYRGNYRTHYDYWGQGTQVTVSS | high polyreactivity
QDQHVESGGGLVQAGGSLRLSCAASGSTFVYYAMGWYRQAPGKERELVAVITWSGGRTYYADSVKGRFTISRDNAKNTVYLQMNSLKPEDTAGYYCAADPLSGYDYWGQGTQVTVSS | low polyreactivity
QVQLVESGGGLVQAGGSLRLSCAASGFTFYRYAMGWYRPAPGKERELVAAISSTGDRTYYADSVKGRFTISRDNAKNTVYLQMNSLKPEDTAVYYCAAPYQNQVEFNYWGQGTQVTVSS | high polyreactivity
QVQLVESGGGLVQAGGSLRLSCAEYDMGWYRQAPGKERELVATITARGGSTYADSVKGRFTISRDNAKNTVYLQMNSLKPEDTAVYYCAADRFFWLRSYPRYYYWGQGTQVTVSS | low polyreactivity
QVQLVESGGGLVQAGGSLRLSCAASGRIFNRYARGWYRQAPGKERELVAAITYNGGSTYYADSVKGRFTISRDNAKNTVYLQMNSLKPEDTAVYYCNAVEVLDEGCGFWYYYWGQGTQVTVSS | high polyreactivity
QVQLEESGGGLVQAGGSLRLSCAASGRIFSDYAKGGYRQAPGKERELVATITSGDSTNYADSVKGRFTISRDNAKNTVYLQMNRLKPEDTAVYYCNADRFADYDYWGQGTQVTVSS | low polyreactivity
QVQLVEAGGGLVQAGGSLRLSCAPSGFICYYYGMGWYRQAPGKDREVVASIRSGGSTNYADSVKGRFTISRDNAKNTGYLQMNWLKPEDTAVYNCAASLLNRISNYDYWGQGTQVTVKS | high polyreactivity
QVQLVESGGGLVQAGGSLRLSCAASGSTFGKYAMGWYRQAPGKERELVAAITTGGNTSYADSVKGRFTISRDNANNTVYLQMNSLKPEDTAVYYCNAKRSFRVDYWGQGTQVTVSS | low polyreactivity
QVQLVESGGGLVQAGGSLRLSCAASGRTFDPYARGGYRQAPGKERELVASISRGGSTYADSVKGRFTISRDNAKNTVYLQMNSLKPEDTAVYYCNTSLYTEGDAMDYWGQGTQVTVSS | low polyreactivity
QVQLVESGGGLVQAGGSLRLSCAASGRIFLYYAMGWYRQAPGKERELVAAITSSGGGTYYADSVKGRFTISRDNAKNTVYLQMNSLKPEDTAVYYCNKAGPYYGYPHYLFYYWGQGTQVTVSS | high polyreactivity
QVQLVESGGGLVQAGGSLRLSCAASGSIFPSYAMGWYRQAPGKDRELVATLGRGGTTNYADSVKGRFTLSRDNAKNTVYIQMNSLKPEDTAVYYCNAERIWRYKDGYDYWGQGTQVTVSS | high polyreactivity
QVQLVESGGGLVQAGGSLRLSCAASGSIFSSNAMGWYRPAPGKERELVAAITSGGSTTYADSVKGRFTISRDNAKNTVYLQMNSLKPEDTAVYYCAADPVYRYYHGWTYLDYDYWGQGTQVTVSS | low polyreactivity
QVQLVESGGGLVQAGGSLRLSCAASGRIFHRYAMGWYRQAPGKERELVASISRGDSTNYADSVKGRFTISRDNAKNTVYLQMNSLKPEDTAVYYCAARSFTRYRYYYWGQGTQVTVSS | high polyreactivity
QVQLEESGGGLVQAGGSLRLSCAASGRILAKYAMGWYRPAPRKEREFVDAISYSGGSTYYADSVKGRFTISRDNAKNNVYLLMNRLKPEYTAVYYCAASSYVLYRTRKMYFWGQGTQVTVSS | high polyreactivity
QVQIVESGGGLVQAGGSLRLSCAASGNNFRYNTMGWYRQAPGKERELVAVITRRGSSTYYADSVKGRCTISRDNAKNTVYLQMNRLKPEDTAVYYCAAAPYYVTLVTRRDYWGQGTQVTVSS | high polyreactivity
QVQLVDSGGGLVQAGGSLRLSCPASGRIFGRNAMAWYRQAPGKERELVAAISSSGGTYYADSVKGRFTISRDNAKNTVYLQMNSLKPEDTAVYYCAADPLYYWWRGDYWGQGTQVTVSS | high polyreactivity
QVQLVESGGGLDQAGGSLRLSCAASGSTFDSNTMGRSRQAPGKERELDAAITVSGGSTHYADSVKGRFTISRDNAKNTVYLQMNSLKPEDTAVYYCNRRSYGYGAFSGYDYWGQGTQVTVSS | low polyreactivity
QVQLVESGGGLVQAGGSLRLSCASSGSTFYWNGMGWYRQAPGKERDLVADITWSGTSTNYADSVKGRFTISRDNAKNTVYLQMNSLKPEDTAVYYCAVSDFGLRDSLTIYDEYDYWGQGTQVTVSS | high polyreactivity

From the nanobody polyreactivity screen of Harvey et al. (2022)
